Measured values taken from PMC12009414.
Values joined by “and” are separate entries in the source; they are usually repeats but may differ in a detail not shown here. Identical values can stand only once.

Experiments:
Assay in all cases: cryo-EM structure
Details in all cases: remark: other sources report otherwise
[1] = target: T1, human DNA polymerase θ helicase domain (residues 1-894) (human), O75417
[2] = target: T1, human DNA polymerase θ helicase domain …; remark: listed apart in the source
[3] = target: T1, human DNA polymerase θ helicase domain …; remark: listed apart in the source

stoichiometry N [1]: 2
stoichiometry N [2]: 2 and 4
stoichiometry N [3]: 2
B1: human DNA polymerase θ helicase domain (residues 1-894), O75417 1-894 (domain or fragment)
chain: MNLLRRSGKRRRSESGSDSFSGSGGDSSASPQFLSGSVLSPPPGLGRCLKAAAAGECKPTVPDYERDKLLLANWGLPKAVLEKYHSFGVKKMFEWQAECLLLGQVLEGKNLVYSAPTSAGKTLVAELLILKRVLEMRKKALFILPFVSVAKEKKYYLQSLFQEVGIKVDGYMGSTSPSRHFSSLDIAVCTIERANGLINRLIEENKMDLLGMVVVDELHMLGDSHRGYLLELLLTKICYITRKSASCQADLASSLSNAVQIVGMSATLPNLELVASWLNAELYHTDFRPVPLLESVKVGNSIYDSSMKLVREFEPMLQVKGDEDHVVSLCYETICDNHSVLLFCPSKKWCEKLADIIAREFYNLHHQAEGLVKPSECPPVILEQKELLEVMDQLRRLPSGLDSVLQKTVPWGVAFHHAGLTFEERDIIEGAFRQGLIRVLAATSTLSSGVNLPARRVIIRTPIFGGRPLDILTYKQMVGRAGRKGVDTVGESILICKNSEKSKGIALLQGSLKPVRSCLQRREGEEVTGSMIRAILEIIVGGVASTSQDMHTYAACTFLAASMKEGKQGIQRNQESVQLGAIEACVMWLLENEFIQSTEASDGTEGKVYHPTHLGSATLSSSLSPADTLDIFADLQRAMKGFVLENDLHILYLVTPMFEDWTTIDWYRFFCLWEKLPTSMKRVAELVGVEEGFLARCVKGKVVARTERQHRQMAIHKRFFTSLVLLDLISEVPLREINQKYGCNRGQIQSLQQSAAVYAGMITVFSNRLGWHNMELLLSQFQKRLTFGIQRELCDLVRVSLLNAQRARVLYASGFHTVADLARANIVEVEVILKNAVPFKSARKAVDEEEEAVEERRNMRTIWVTGRKGLTEREAAALIVEEARMILQQDLVEM
